Among the data in the supplement of paper PMC12042874 are amyloid nucleation score values, retold here.

This data set is described as follows: amyloid nucleation score (Sup35N fusion, yeast selection) (log enrichment); library NNK2; higher = more nucleation; inactive = no reads after selection. Summed up: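 For the nucleation score, DiMSum gave the log enrichment of output over input reads, centred on the mode score of non-aggregating sequences. Psi-negative yeast expressing Sup35N fused to peptides of 20 random codons were induced with 100 μM copper sulfate for 24 hours and grown 7 days at 30°C on medium lacking adenine and uracil. Input and output plasmid inserts were Illumina-sequenced, and sequences with under 100 input reads were excluded.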

± gives the uncertainty stated by the source.

QKKLDLQ registered an amyloid nucleation score of -0.673 ± 1. Then IGTMVEREKL, with 0.299 ± 0.39; and GSLTDLFGWDESCFRCTALC, with 3.79 ± 0.092; and EKRMNLVHYREYLPPFKRSN, with -0.403 ± 1. Take SAYVVLIEFVLNKVVGTLLR: the amyloid nucleation score is -0.634 ± 0.63. The value for HLWGTKFMAFVARFV was -0.12 ± 0.79; that for WVLPSLKGCTAVSYIFVFLY was 0.398 ± 0.27. The value for VSWCFFDHYHSTILKHGTVS was “inactive”. The value for YYFKFNSS was 3.65 ± 0.12; that for MYLTCFWVGQDGKGRKDGGV was 5.62 ± 0.078. On to NQWSLRGGYWPVVLVCFAWM, for which the amyloid nucleation score entry was “inactive”. As to LVAFFFVSPFGGGHIAIRLR, the amyloid nucleation score was -0.114 ± 1.1. Then ITCIAGWSNLNDYVFYTVAS, with “inactive”.

Regarding HLGVGFLWSVRFIYMTFGFS, the amyloid nucleation score result is “inactive”.

Take ADSVYAVRRKAV: the amyloid nucleation score stood at 0.356 ± 0.8. The value for QGELYRSANLLFVAEVSSWR was 0.561 ± 0.64.

TYLRSPLLLNAVSVNT showed an amyloid nucleation score of 0.082 ± 0.65. Regarding YCDCPVNICRRFPGHEHRGV, the amyloid nucleation score result is “inactive”. The value for HTITNTL was -0.06 ± 1.1; that for LYLTSNIFLCLIYDL was 0.576 ± 0.18.

With SVLLWWTHMYGLRMMKGVWG, the amyloid nucleation score is 0.433 ± 0.15. Then WLGIAAM, with 1.15 ± 0.43.

The substance RFEFIVMSLW showed an amyloid nucleation score of 3.19 ± 0.06. The value for LVSIPSWCPTLASQKLIPR was 2.94 ± 0.19; that for YPPSVLFVSALHQVGTMSGG was 0.003 ± 0.3; that for VLNIARVRHDKG was 3.7 ± 0.051. Then HWYLRSV, with 0.239 ± 0.43; and IRSRLFFALLCVYS, with -0.861 ± 0.41. Then LDYRPCEDNDDVDVSEILHG, with 0.224 ± 0.25; and GTLPYFKN, with -0.641 ± 0.74. The substance SMFIVHSCSTWLTNNGLNHM yielded an amyloid nucleation score of 3.19 ± 0.16. Consider SAPYLIMLRLDSCACGDVF, for which the amyloid nucleation score came out at 2.01 ± 0.083. With YFCERWMLSCIGGLFVNFLY, the amyloid nucleation score turned out to be 0.168 ± 0.15. As for KLCKVYVRRRSIICWGNCVP, the amyloid nucleation score is -0.481 ± 1.1. Then MTRNGDLFS, with 0.657 ± 0.4; and HYCYRHIGRLQMWMKSGLHA, with 1.04 ± 0.34; and LTSGQEGG, with 0.047 ± 0.45. Then CSCDGWVCPCSACIC, with 8.708 ± 0.035. The value for RIYRRNQWVPGGDYSKGINL was -0.892 ± 0.76.

In turn, IMWRTERINNYVDSV came in with an amyloid nucleation score of -0.846 ± 0.45. The value for CSSYHLEYKCYKHLLWFQSR was -0.306 ± 0.3; that for PTAVNSTMYSMYRTGNL was -0.294 ± 0.34.

Substance SMGSPETC displayed an amyloid nucleation score of -0.47 ± 1.1. Then LLRSEVGDLILPCVLERCRP, with 1.13 ± 0.36. FTAMNIGNACMESQALPWNL: the amyloid nucleation score stood at 0.198 ± 0.65. Then FLRILFFGLGVMLQIRFFVH, with -0.569 ± 0.37; and FTGRETFQRKRFAAVLSSSV, with -0.062 ± 0.65. Then YVVEHQLMYAVWLFALGGSN, with 0.655 ± 0.24; and MVSGRPTVYKTSSLQTASAN, with -0.14 ± 0.65; and DVSNLWFTNFCGFWGKYVVK, with “inactive”.

Turning to DLRSWVFWNTSAYYIFSTDS, the amyloid nucleation score was -1.32 ± 0.36. Then EMGVGSYSGRCATSGGSNLQ, with 0.929 ± 0.27.

Take AWSYVQFRTFYALTVPTSAL: the amyloid nucleation score is -0.125 ± 0.38. The value for EICLDAITVVPLHGSIRLTV was 0.764 ± 0.25; that for CDYWYYIGRRNVEMEHRVTC was 0.148 ± 1. The value for YTVPSQNKWVENLMNWRGYR was -0.663 ± 0.23; that for GKEIRNNITMCGYLMQNICD was 2.85 ± 0.17; that for EYMAITSFQKLFPHWFLSTE was “inactive”. The value for YFELKLKNARVGRFIDWRAT was 1.77 ± 0.27; that for VCKMSSLNLCKRP was -0.133 ± 1; that for RVIWSPSRDRSSWFTESEYH was -0.278 ± 0.36. As for DYFSNLIVDLTFLSGSFVFV, the amyloid nucleation score was -0.578 ± 1.1. The value for RNGFAIRITANHYTQLVYDL was 3.82 ± 0.094; that for SFVNFCRLRASLCAVAISTT was “inactive”.

With TVRVST, the amyloid nucleation score was -0.004 ± 0.36. The value for GETVHREYLAGWMALSSRRR was 2.47 ± 0.094; that for KSSVELWTFERA was 1.14 ± 0.33. The value for CNRLVVLSSCNWYRDVADSL was 0.115 ± 1; that for DRLTG was -0.705 ± 1.1. Then TMLSLSDISFQLKKILL, with 2.56 ± 0.15; and NSNFCCVGLCTNFAWFVCLM, with 8.44 ± 0.064. With YMCQRTETMSVSTWGKILCV, the amyloid nucleation score entry was “inactive”. Then NWIPSI, with -0.817 ± 0.41; and RIVGRSFYMQFGRVWDFLRS, with -0.546 ± 0.61; and GVHMSDRVNTMSD, with -0.129 ± 1.1. YVPDGAQARLDASIFIVCSR: the amyloid nucleation score is 5.23 ± 0.055. The value for DGFSYDPFSMVSIVVRFVVG was 0.99 ± 0.32. In turn, RTWAFFKAVWGIVDRTTLSN registered an amyloid nucleation score of -1.13 ± 0.62. The value for QLDRCLILPWTFSWCMDCVL was 4.92 ± 0.053; that for NFDGSCKA was -0.853 ± 1.1; that for GYDIISQKLGIQSYQKCTFI was -1.86 ± 0.62. The value for SIYRFDLTYPNRHHCYNVVI was -0.184 ± 1.1. Then YGYIFISCENVRTQRSVIDG, with “inactive”. With LGFIHSTG, the amyloid nucleation score result is “inactive”.

With FFTQGSCDTILRGLAFFTPR, the amyloid nucleation score was -0.26 ± 1. On to VNCIASSFSLPRRTLSNSMD, for which the amyloid nucleation score result is “inactive”. Then MRGAYLRFRSMCAGAAGKCD, with “inactive”; and WCTIHYDLMLVVRTNSSRSI, with 1.08 ± 0.18; and AASNQMSQ, with “inactive”. The substance DSFIVYVR showed an amyloid nucleation score of -0.072 ± 0.63. For CTSASGTSPGWNKRGRNWGD, the amyloid nucleation score worked out at 5.52 ± 0.095.

As to INLISSYHFGELTCATSYWR, the amyloid nucleation score is 4.77 ± 0.09. The value for HLYMH was 1.62 ± 0.18; that for GFRVVCHILALCRYGTCLEI was -0.608 ± 0.35.

Consider WNLRMYLNMGYMVLFNIQF, for which the amyloid nucleation score worked out at 3.64 ± 0.099.

In turn, RVYMWLWIGWCRIG displayed an amyloid nucleation score of 0.58 ± 0.51. Then NTCGMRSLGKTFRIVSSLGS, with 0.285 ± 0.43; and NIFYRLNGFFQCPRSGLKGC, with “inactive”. In the case of WLMKINRT, the amyloid nucleation score was determined as 0.129 ± 0.26. On to MYVRVDFVFSNADRTWNPLK, for which the amyloid nucleation score amounted to 3.76 ± 0.08. The value for VQPVLCIVSCNRLNRQRAEM was -0.498 ± 1.1. The value for VYNTFLREFHS was 1.99 ± 0.13; that for KRIIFALL was -0.337 ± 0.48. Then MSGVSAVLRDLFKYVELIIR, with “inactive”; and LDEPRM, with 0.16 ± 0.24.

In turn, TQCSLRLKFTCYAMRSFGQY yielded an amyloid nucleation score of 5.02 ± 0.096. Then FTEFPNFNDMSDRVV, with -0.92 ± 0.64.

Regarding TASKILSGIASYDSRIIQPE, the amyloid nucleation score is -0.447 ± 0.23. Then VSMNDVLYLMCS, with -0.556 ± 0.25; and WMKFTWWRHEYYVVS, with -0.195 ± 0.79; and SFNVF, with -0.094 ± 0.6. Substance LAFFGVLSSFYSRFGIKTKM returned an amyloid nucleation score of -1.83 ± 0.54.

The substance SVAASGFHVV had an amyloid nucleation score of -1.57 ± 0.76. The value for FLMEVSLTLSFLERSNVLKG was 3.8 ± 0.067; that for YYEVCPI was -0.076 ± 0.44; that for FTNCEYNVDISCVSGLSYSI was “inactive”.

As for YTAFLFICTRALLMPDMKFL, the amyloid nucleation score entry was “inactive”. CCSIVSTYRKYLVNRTRWIF had an amyloid nucleation score of -0.982 ± 0.42. Then QCFIWSHRVIVGFHGLGLSA, with -0.02 ± 0.79.

For the substance SYNDWGFMKVGCL, the amyloid nucleation score is -0.686 ± 0.39. Then WAKCRLTIMTKWSLLCGGLG, with 1.43 ± 0.34. Then GVCFSFVFM, with 8.487 ± 0.064. Then VTRVWYRTSDCDAYSHGNFL, with 0.991 ± 0.27; and AAILFSGDVLCLLRCYIAIK, with -0.291 ± 0.74; and RTPFEDKVSIGDDSRSRADL, with 0.414 ± 0.41. On to FFVESRSCSGYKMMKRCLDV, for which the amyloid nucleation score was 1.54 ± 0.15. Then RRSGGPGEDGGSYERQFTSR, with 0.95 ± 0.32.

GVGEEGARVKWIVCNKCFFP had an amyloid nucleation score of 2.1 ± 0.12. Then IPLVKCRSCRRCNN, with 0.412 ± 0.5; and YMRSWEVLNMCGVSWLCIFA, with 7.419 ± 0.064. Then YFKTWAICHWFCNWRRLWMN, with 0.305 ± 1. WVGSCKNVSFMQVIVWIVRL returned an amyloid nucleation score of -0.121 ± 1.1. The value for GPCMMEGLIYREMSAGYTTV was 0.416 ± 0.49; that for WDSRDLMC was 0.344 ± 0.39; that for DLGAFRLRR was -2.19 ± 0.54. Then GAIIGIAGVPKGLSNSHSDG, with -0.606 ± 1.1.

INMGMYDSNVCDA came in with an amyloid nucleation score of -0.034 ± 0.65. Then FHAYTGCVWVTCQYGWRRDT, with 1.9 ± 0.15. As for MYLPMVDVIEVSYSVNLERG, the amyloid nucleation score is -0.311 ± 0.32.
